The source of these data is PMC10397247.

Assay in all cases: two-hybrid library CCmax;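 note: natural log of median RNA to DNA barcode read ratio; higher means stronger binding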
Experiment [1] concerns the target T1, 4H662-AA.
T1 chain: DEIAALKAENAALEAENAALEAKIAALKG
To be noted: mean of both orientations.

Experiment [2] concerns the target T2, 4H3664-AA.
T2 chain: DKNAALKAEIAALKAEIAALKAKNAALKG
To be noted: mean of both orientations.

For experiment [3], the target named is T3, 4H2726-AA.
T3 chain: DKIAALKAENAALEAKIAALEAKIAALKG
To be noted: mean of both orientations.

Experiment [4] has as its target T4, 4H369-AA.
T4 chain: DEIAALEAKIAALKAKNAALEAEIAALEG
To be noted: mean of both orientations.

The target of experiment [5] is T5, 4H2758-AA.
T5 chain: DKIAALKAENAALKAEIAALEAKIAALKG
To be noted: mean of both orientations.

For experiment [6], the target named is T6, 4H3605-AA.
T6 chain: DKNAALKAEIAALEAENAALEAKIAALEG
To be noted: mean of both orientations.

Experiment [7] deals with T7, 4H1738-AA.
T7 chain: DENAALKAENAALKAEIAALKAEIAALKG
To be noted: mean of both orientations.

In experiment [8] the target is T8, 4H1324-AA.
T8 chain: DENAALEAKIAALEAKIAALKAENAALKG
To be noted: mean of both orientations.

Experiment [9] concerns the target T9, 4H1352-AA.
T9 chain: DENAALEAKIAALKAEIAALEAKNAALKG

The target in experiment [10] is T10, Core_NNII-es_KKKK.
T10 chain: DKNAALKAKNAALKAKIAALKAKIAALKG
To be noted: mean of both orientations.

The target of experiment [11] is T11, Core_NIIN-es_KEKK.
T11 chain: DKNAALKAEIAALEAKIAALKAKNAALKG

Experiment [12] concerns the target T12, O7-AA.
T12 chain: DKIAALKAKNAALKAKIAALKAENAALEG
To be noted: mean of both orientations.

The target in experiment [13] is T13, P6-AA-12HGe-W.
T13 chain: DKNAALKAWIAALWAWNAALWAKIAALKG
To be noted: mean of both orientations.

In experiment [14] the target is T14, P6-AA-1HAA-L.
T14 chain: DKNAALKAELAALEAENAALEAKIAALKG
To be noted: mean of both orientations.

Experiment [15] addresses T15, P6-AA-1HGe-Q.
T15 chain: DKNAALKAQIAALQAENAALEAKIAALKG
To be noted: mean of both orientations.

Experiment [16] addresses T16, P6-AA-1HGe-H.
T16 chain: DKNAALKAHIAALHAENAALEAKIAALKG
To be noted: mean of both orientations.

For experiment [17], the target named is T17, P6-AA-1HGe-A.
T17 chain: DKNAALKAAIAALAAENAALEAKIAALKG
To be noted: mean of both orientations.

Experiment [18] deals with T18, P6-AA-12HGe-K.
T18 chain: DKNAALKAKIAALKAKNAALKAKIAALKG
To be noted: mean of both orientations.

The target of experiment [19] is T19, P6-AA-1HAA-K.
T19 chain: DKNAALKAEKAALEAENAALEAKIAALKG
To be noted: mean of both orientations.

Experiment [20] has as its target T20, P6-AA-1HAA-Y.
T20 chain: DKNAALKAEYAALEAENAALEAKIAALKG
To be noted: mean of both orientations.

Experiment [21] concerns the target T21, APC3645-AA.
T21 chain: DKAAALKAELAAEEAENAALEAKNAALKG

The target of experiment [22] is T22, APC9319-AA.
T22 chain: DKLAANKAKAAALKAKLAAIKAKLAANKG
To be noted: mean of both orientations.

The target of experiment [23] is T23, APC7099-AA.
T23 chain: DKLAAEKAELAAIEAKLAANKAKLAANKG
To be noted: mean of both orientations.

Experiment [24] has as its target T24, APC2237-AA.
T24 chain: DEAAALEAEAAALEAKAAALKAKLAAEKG
To be noted: mean of both orientations.

Experiment [25] concerns the target T25, 4H432-AA.
T25 chain: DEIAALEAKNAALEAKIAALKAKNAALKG
To be noted: mean of both orientations.

The target of experiment [26] is T26, 4H3449-AA.
T26 chain: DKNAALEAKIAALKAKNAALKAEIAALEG
To be noted: mean of both orientations.

Experiment [27] concerns the target T27, 4H2947-AA.
T27 chain: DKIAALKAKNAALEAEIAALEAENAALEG
To be noted: mean of both orientations.

The target in experiment [28] is T28, 4H1391-AA.
T28 chain: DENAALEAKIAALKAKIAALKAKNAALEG
To be noted: mean of both orientations.

Experiment [29] concerns the target T29, 4H675-AA.
T29 chain: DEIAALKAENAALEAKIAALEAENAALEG
To be noted: mean of both orientations.

Experiment [30] deals with T30, 4H1109-AA.
T30 chain: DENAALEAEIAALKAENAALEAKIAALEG
To be noted: mean of both orientations.

The target in experiment [31] is T31, 4H478-AA.
T31 chain: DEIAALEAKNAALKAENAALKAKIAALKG
To be noted: mean of both orientations.

The target of experiment [32] is T32, 4H2600-AA.
T32 chain: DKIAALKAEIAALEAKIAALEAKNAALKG
To be noted: mean of both orientations.

Experiment [33] concerns the target T33, 4H140-AA.
T33 chain: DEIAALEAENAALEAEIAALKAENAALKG
To be noted: mean of both orientations.

The target of experiment [34] is T34, 4H58-AA.
T34 chain: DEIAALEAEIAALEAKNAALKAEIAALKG
To be noted: mean of both orientations.

Experiment [35] has as its target T35, 4H2721-AA.
T35 chain: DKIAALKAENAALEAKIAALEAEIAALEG
To be noted: mean of both orientations.

The target in experiment [36] is T36, 4H2750-AA.
T36 chain: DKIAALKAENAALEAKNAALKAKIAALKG
To be noted: mean of both orientations.

For experiment [37], the target named is T37, P5-AA-1HGe-R.
T37 chain: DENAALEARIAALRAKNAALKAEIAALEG
To be noted: mean of both orientations.

For experiment [38], the target named is T38, P5-AA-1HGe-Q.
T38 chain: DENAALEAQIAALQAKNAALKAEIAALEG
To be noted: mean of both orientations.

The target in experiment [39] is T39, P5-AA-12HGe-W.
T39 chain: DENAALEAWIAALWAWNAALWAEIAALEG
To be noted: mean of both orientations.

Experiment [40] addresses T40, P6-AA-12HAA-D.
T40 chain: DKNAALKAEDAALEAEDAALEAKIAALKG
To be noted: mean of both orientations.

Experiment [41] has as its target T41, P6-AA-12HAA-S.
T41 chain: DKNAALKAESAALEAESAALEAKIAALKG
To be noted: mean of both orientations.

Experiment [42] deals with T42, P6-AA-12HAA-L.
T42 chain: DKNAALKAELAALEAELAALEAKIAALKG
To be noted: mean of both orientations.

Regarding DENAALEAKIAALKAEIAALEAKIAALKG [4H1350-AA], the interaction score in experiment [1] was -1.35; in experiment [2] it was 0.037; in experiment [3] it was -0.0467; in experiment [4] it was 0.227; in experiment [5] it was -0.48; in experiment [6], -0.433.
Molecule DENAALKAEIAALKAENAALKAEIAALKG [4H1626-AA] displayed an interaction score in experiment [7] of -0.841.
For the molecule DENAALEAENAALEAEIAALEAEIAALEG [4H1153-AA], the interaction score in experiment [8] is -0.874; in [9], 0; in [10], 1.83; in [11], 1.86.
The molecule DEIAALEAENAALEAKIAALKAENAALEG [4H171-AA] registered an interaction score in experiment [12] of 1.08.
Take DENAALEAKIAALKAKNAALKAEIAALEG [4H1401-AA]: the interaction score in [13] was -1.79; in experiment [14], 2.1; in [15] it was 2.02; in [16], 1.77; in experiment [17], 2.14; in [18], -0.592. The interaction score in experiment [19] stood at 2.04; in [20], 2.37.
For the molecule DENAALKAKIAALEAKNAALEAKIAALEG [4H1845-AA], the interaction score was -1.23 in [21], -1.55 in experiment [22], -1.48 in experiment [23] and -1.46 in experiment [24].
Consider DEIAALEAENAALKAKNAALKAEIAALEG [4H249-AA], for which the interaction score is -1.72 in experiment [25], -1.43 in [26] and -1.55 in experiment [27].
With DENAALEAEIAALEAKIAALEAKNAALKG [4H1064-AA], the interaction score was 1.33 in experiment [28], -1.16 in experiment [29], -1.24 in experiment [30] and -1.56 in experiment [31].
For DENAALEAENAALKAKIAALKAEIAALEG [4H1257-AA], the interaction score in experiment [32] was 0.518; in [33] it was -1.43; in experiment [34] it was -1.21; in experiment [35] it was 1.02; in [36], -1.22.
DKNAALKAEIAALEAENAALEAKIAALKG [4H3606-AA]: the interaction score came to 2.23 in experiment [37], 2.38 in experiment [38] and 1.04 in [39].
For the molecule DENAALEAKIAALKAKIAALKAEIAALEG [4H1385-AA], the interaction score in experiment [40] is -1.1; in experiment [41], 1.43; in [42], 2.03.
